Earlier results as cited in patent US20170022546.
pKd: −log10 of the molar value.

Target: T1, KZF (Kaiso zinc finger domain, three C2H2 fingers) (UniProt Q86T24)
T1 sequence: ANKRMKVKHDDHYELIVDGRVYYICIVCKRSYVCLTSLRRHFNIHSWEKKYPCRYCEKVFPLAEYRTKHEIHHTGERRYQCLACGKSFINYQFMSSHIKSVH
Conditions: 5mC; CITED ref 45; 1:1 complex

consecutive methylated CpG target (literature)
pKd: 9.68
